B1: library; numbered along this chain (parent)
chain: MAAAGGARLLRAASAVLGGPAGRWLHHAGSRAGSSGLLRNRGPGGSAEASRSLSVSARARSSSEDKITVHFINRDGETLTTKGKVGDSLLDVVVENNLDIDGFGACEGTLACSTCHLIFEDHIYEKLDAITDEENDMLDLAYGLTDRSRLGCQICLTKSMDNMTVRVPETVADARQSIDVGKTS

Variants of: B1
Assay: scaled log2 fold change in cell abundance, elesclomol vs control (0 = silent mean, 1 = nonsense mean) (scaled log2 ratio); higher = higher viability under elesclomol (loss of FDX1 cuproptosis function)
Details: glucose 10 mM
Method: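 Deep mutational scan of full-length human FDX1: a pooled saturation-mutagenesis ORF library (every residue 2-184 mutated to all 19 amino acids plus stop, and silent codons where available) was expressed by lentivirus in FDX1-knockout ABC1 (14 days) or HEK293T (11 days) cells grown with elesclomol (ES) or DMSO control. Variant abundance came from ORF sequencing. The log2 fold change (ES vs control, mean of duplicates) was centred on the silent-variant mean (0) and scaled to the nonsense-variant mean (1). Higher values mean greater viability under ES, i.e. loss of FDX1 function in cuproptosis.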

[1] = with ABC1 FDX1 KO, elesclomol 5 nM, 14 days
[2] = with HEK293T FDX1 KO, elesclomol 40 nM, 11 days
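Further: variant abundance is its share of total variant reads in each endpoint sample, from next-generation sequencing of the integrated ORF PCR-amplified out of genomic DNA.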

| Variant | scaled log2 fold change [1] | scaled log2 fold change [2] |
| --- | --- | --- |
| L25Q | -0.0213 | -1.08 |
| L25V | 0.553 | – |
| L25T | 0.536 | – |
| L25A | -0.505 | – |
| L25H | 0.124 | -0.423 |
| L25K | 0.14 | 1.29 |
| L25C | 0.238 | 0.0546 |
| L25M | 0.607 | 1.17 |
| L25D | -0.703 | – |
| L25Y | 0.423 | 0.926 |
| L25G | -0.623 | – |
| L25E | -0.135 | -0.0782 |
| L25W | 0.28 | 0.019 |
| L25P | 0.318 | 1.23 |
| L25S | 0.221 | – |
| L25N | -0.498 | – |
| L25R | 0.126 | 0.222 |
| A32C | -0.309 | -1.08 |
| A32T | -0.266 | – |
| A32P | 0.626 | – |
| A32R | 0.589 | 1.44 |
| A32H | -0.58 | -0.0637 |
| A32E | 0.295 | -0.00588 |
| A32F | 0.304 | 0.033 |
| A32I | 0.101 | 0.722 |

| Variant | scaled log2 fold change [1] | scaled log2 fold change [2] |
| --- | --- | --- |
| A32Q | 0.0849 | -0.338 |
| A32W | -0.684 | – |
| A32N | -0.064 | -0.0431 |
| A32Y | 0.0969 | 0.822 |
| A32V | -0.114 | – |
| A32G | 0.242 | -0.0456 |
| A32D | 0.119 | – |
| A32S | 0.0206 | -0.496 |
| A28D | 0.233 | -0.109 |
| A28Q | 0.264 | 0.224 |
| A28E | 0.301 | -0.431 |
| A28N | -0.0865 | -0.0101 |
| A28V | 0.133 | -0.408 |
| A28L | -0.00195 | – |
| A28I | -0.00142 | 0.691 |
| A28K | -0.114 | 0.248 |
| A28M | -0.0504 | -0.198 |
| A28R | 0.246 | 2.14 |
| A28T | -0.152 | – |
| A28W | -0.122 | 0.863 |
| A28S | -0.179 | -0.13 |
| A28C | 0.232 | 0.15 |
| A28H | -0.736 | -0.127 |
| A28Y | -0.00855 | 0.974 |
| A28P | 0.56 | 0.292 |

| Variant | scaled log2 fold change [1] | scaled log2 fold change [2] |
| --- | --- | --- |
| A28G | 0.336 | 1.17 |
| A28F | 0.368 | 0.0914 |
| G29D | 0.238 | – |
| G29K | -0.417 | 1.26 |
| G29R | -0.244 | -0.0867 |
| G29T | -0.284 | -0.357 |
| G29C | 0.0521 | -0.731 |
| G29P | -0.415 | -0.6 |
| G29F | -0.118 | -0.149 |
| G29Y | -0.628 | – |
| G29W | 0.42 | 0.76 |
| G29I | 0.147 | -1.13 |
| G29M | -0.124 | -0.568 |
| G29E | 0.324 | 0.361 |
| G29S | 0.00542 | -0.441 |
| G29V | -0.87 | – |
| W24K | -0.318 | -0.743 |
| W24E | 0.458 | -0.438 |
| W24L | 0.45 | – |
| W24R | -0.838 | -0.244 |
| W24H | 0.42 | -0.545 |
| W24C | 0.00637 | -0.0787 |
| W24M | 0.24 | -0.653 |
| W24Q | -0.175 | 0.364 |
| W24V | 0.155 | -0.39 |

| Variant | scaled log2 fold change [1] | scaled log2 fold change [2] |
| --- | --- | --- |
| W24N | -0.222 | 0.318 |
| W24I | -0.0623 | – |
| W24F | 0.286 | 0.448 |
| S35P | -0.144 | – |
| S35V | 0.123 | -0.55 |
| S35M | 0.309 | 0.0177 |
| S35N | 0.181 | -0.653 |
| S35Q | 0.169 | 0.0163 |
| S35F | -0.398 | 0.53 |
| S35H | -0.513 | 1.67 |
| S35W | -0.0127 | -0.259 |
| S35E | -0.0617 | -0.644 |
| S35G | -0.212 | -1.33 |
| S35A | -0.0215 | 0.327 |
| S35L | -0.141 | -0.673 |
| S35C | 0.0457 | 0.128 |
| S35R | -0.768 | -0.669 |
| S35D | 0.267 | 1.13 |
| S35K | 0.175 | 0.17 |
| S35T | -0.263 | 0.526 |
| S35I | 0.293 | 0.132 |
| S35Y | -0.531 | -0.958 |
| S34L | 0.0704 | -0.513 |
| S34Y | 0.029 | -0.188 |
| S34K | 0.146 | -0.467 |

| Variant | scaled log2 fold change [1] | scaled log2 fold change [2] |
| --- | --- | --- |
| S34W | 0.0117 | 0.853 |
| S34C | 0.0357 | 0.188 |
| S34A | -0.221 | -0.449 |
| S34E | -0.124 | -0.639 |
| S34G | 0.285 | -0.277 |
| S34D | 0.0928 | -0.389 |
| S34T | 0.125 | -0.0688 |
| S34I | -0.128 | -0.488 |
| S34H | 0.251 | -0.957 |
| S34P | -0.325 | -0.116 |
| S34M | -0.108 | 0.216 |
| S34Q | -0.0397 | -0.168 |
| S34R | -0.433 | 0.662 |
| S34F | 0.0028 | -0.301 |
| S34V | 0.0515 | -1.09 |
| S34N | 0.0794 | 0.424 |
| L37C | -0.0306 | – |
| L37M | 0.0458 | 0.0807 |
| L37H | -0.125 | -0.331 |
| L37K | 0.0656 | -0.805 |
| L37Q | -0.0502 | -0.659 |

Reference: the supplement of paper PMC12855868
